Experimental data from paper doi:10.1101/2020.02.13.946640 (bioRxiv, 2020).
Like-named read-outs stand apart in the source and are kept apart here. Values belong to the molecule of their own block, whether it stands above or below them.

T1: a subunit of Thermus thermophilus V/A-ATPase (Thermus thermophilus, UniProt Q5SIT6 1-652)
T1 sequence (looked up): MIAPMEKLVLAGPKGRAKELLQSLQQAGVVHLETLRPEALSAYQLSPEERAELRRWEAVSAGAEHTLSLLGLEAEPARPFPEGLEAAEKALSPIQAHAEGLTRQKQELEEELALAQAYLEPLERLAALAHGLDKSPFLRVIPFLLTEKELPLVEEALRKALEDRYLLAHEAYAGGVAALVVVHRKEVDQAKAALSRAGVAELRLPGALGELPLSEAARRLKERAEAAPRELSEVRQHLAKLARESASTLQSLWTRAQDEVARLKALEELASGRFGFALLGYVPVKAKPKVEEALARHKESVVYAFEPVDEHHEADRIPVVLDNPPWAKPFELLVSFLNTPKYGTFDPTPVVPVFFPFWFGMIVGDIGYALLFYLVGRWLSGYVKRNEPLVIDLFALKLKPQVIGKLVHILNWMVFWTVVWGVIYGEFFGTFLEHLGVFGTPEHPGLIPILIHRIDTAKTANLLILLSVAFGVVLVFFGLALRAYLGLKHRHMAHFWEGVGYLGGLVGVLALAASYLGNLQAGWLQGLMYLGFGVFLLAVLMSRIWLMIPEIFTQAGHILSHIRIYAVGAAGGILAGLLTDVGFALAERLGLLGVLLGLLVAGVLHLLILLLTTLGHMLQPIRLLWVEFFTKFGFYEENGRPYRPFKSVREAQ

B1: D subunit of Thermus thermophilus V/A-ATPase (natural protein, UniProt O87880 1-223, looked up)
chain: MSQVSPTRMNLLQRRGQLRLAQKGVDLLKKKRDALVAEFFGLVREAMEARKALDQAAKEAYAALLLAQAFDGPEVVAGAALGVPPLEGVEAEVENVWGSKVPRLKATFPDGALLSPVGTPAYTLEASRAFRRYAEALIRVANTETRLKKIGEEIKKTTRRVNALEQVVIPGIRAQIRFIQQVLEQREREDTFRLKRIKGKIEAREAEEEGGRPNPQVEIGAGL
B2: d subunit of Thermus thermophilus V/A-ATPase (natural protein, UniProt P74902 1-323, looked up)
chain: MADDFAYLNARVRVRRGTLLKESFFQEALDLSFADFLRLLSETVYGGELAGQGLPDVDRAVLRTQAKLVGDLPRLVTGEAREAVRLLLLRNDLHNLQALLRAKATGRPFEEVLLLPGTLREEVWRQAYEAQDPAGMAQVLAVPGHPLARALRAVLRETQDLARVEALLAKRFFEDVAKAAKGLDQPALRDYLALEVDAENLRTAFKLQGSGLAPDAFFLKGGRFVDRVRFARLMEGDYAVLDELSGTPFSGLSGVRDLKALERGLRCVLLKEAKKGVQDPLGVGLVLAYVKEREWEAVRLRLLARRAYFGLPRAQVEEEVVCP

Columns and labels:
Assay in all cases: cryo-EM structure
[1] = biological target: c subunit of Thermus thermophilus V/A-ATPase, His3-tagged (Thermus thermophilus) (UniProt Q5SIT7)
[2] = biological target: c subunit of Thermus thermophilus V/A-ATPase, His3-tagged (Thermus thermophilus) (UniProt Q5SIT7); remark: listed apart in the source
[3] = biological target: B2
[4] = biological target: T1, a subunit of Thermus thermophilus …

stoichiometry N [1]: 12
stoichiometry N [2]: 12
Molecule: c subunit of Thermus thermophilus V/A-ATPase, His3-tagged (from UniProt Q5SIT7 1-99) (natural protein)

Molecule: B1
binding result [3]: binds

Molecule: B2
binding result [4]: binds
